The values below come from the nanobody polyreactivity screen of Harvey et al. (2022).

The data set can be described thus: yeast display, Sf9 membrane polyspecificity reagent, FACS + sequencing; frameworks hold sequencing errors. The procedure, abridged:
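Galactose-induced (36–48 hours) yeast carrying a synthetic nanobody display library were exposed to 10% biotinylated, detergent-solubilized Sf9 membrane reagent at 4 °C for 1 hour. FACS followed streptavidin microbead enrichment, using low and high (top ~1%) gates for expression (anti-HA) and reagent binding (streptavidin). Colony PCR, MiSeq 2 × 250 sequencing and CDR-length filtering followed. Labels for polyreactivity reflect the gate of origin.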
“QVQLVESGGGLVQAGGSLRLSCAASGSIFKRNAMGWYRQAPGKERELVASISSGGSTHYADSVKGRFTISRDNAKNTVYFQMNSLKPEDTAVYYCAATSIRWSVGSFRRDYWGQGTQVTVSS”: the “polyreactivity (PSR sort gate)” value was “low polyreactivity”.

Consider “QVQLVESGGGLVQAGGSLRLSCAASGSIFKRNAMGWYRQAPGKERELVASISSGGSTHYADSVKGRFTNSRDNAKNTVYLQMNSLKPEDTAVYYCAATSIRWSVGSFRRDYWGQVTQVTVSS”, for which the “polyreactivity (PSR sort gate)” value is recorded as “low polyreactivity”. For “QVQLVESGGGLVQAGGSLRLSCAASGSIFKSYAMGWYRQAPGKERELVAAISGSGGRTYYADSVKGRFTISRDNAKNTVYLQMNSLKPEDTAVYYCNALASIRTHTGYAYSPPYDYWGQGTQVTVSS” the value was “high polyreactivity”; for “QVQLVESGGGLVQAGGSLRLSCAASGSIFKSYAMGWYRQAPGKERELVAAITRSGGSTYYADSVKGRFTISRDNAKNTVYLQMNSLKPEDTAVYYCAKKAPYWSYYYWGQGTQVTVSS”, “high polyreactivity”; for “QVQLVESGGGLVQAGGSLRLSCAASGSIFKTNAMGWYRQAPGKERELVAAIYRSDGTDYADSVKGRFTISRDNAKNTVYLQMNSLKPEDTAVYYCNADKWSVVGYVLGFYRDDYWGQGSQVTVSS”, “low polyreactivity”.

Take “QVQLVESGGGLVQAGGSLRLSCAASGSIFKTNAMGWYRQAPGKERELVAGISNGGSTNYADSVKGRFTISRDNAKNTVYLQMNSLKPEDTAVYYCAAPYTSQTIPDYVRYFIEYDYWGQGTQVTVSS”: the “polyreactivity (PSR sort gate)” value was “low polyreactivity”. For “QVQLVESGGGLVQAGGSLRLSCAASGSIFKVNVMGWSRQAPGKERELVAAISRSGGNTYYADSVKGRFTISRDNAKNTVYLQMIILKPEDTGVYYCANDRRYYKAYDYWGQGTRVTVSS” the value was “low polyreactivity”.

In the case of “QVQLVESGGGLVQAGGSLRLSCAASGSIFKWYAMGWYRQAHGKERELVAAITNGGGSTYYADSVKGRFTISRDNAKNTVYLQMNSLKPEDTAVYYCNADSYYYPYDYWGQGTQVTVSS”, the “polyreactivity (PSR sort gate)” value is given as “low polyreactivity”.

As to “QVQLVESGGGLVQAGGSLRLSCAASGSIFKYNAMGWYRKAPGKERELVAAISWSGASTSYADSVKGRFTISRDNAKNTVYLQMNSLKPEDTAVYYCNAYYWYYSTRKYYYWGQGTKVTVSS”, the “polyreactivity (PSR sort gate)” value is reported as “high polyreactivity”.

As for “QVQLVESGGGLVQAGGSLRLSCAASGSIFKYNAMGWYRQAPGKERELVAAISNDGGRTYYADSVKGRFTISRDNAKNTVYLQMNSLKPEDTPVYDGNVVRVRYYWWEFDYWGQGTQVTVSS”, the “polyreactivity (PSR sort gate)” value was “high polyreactivity”. For “QVQLVESGGGLVQAGGSLRLSCAASGSIFKYYAMAWYRQSPGNERELVAAISSGGRTYYADSVKGRFTISRDNAKNTVYLQMNSLKPEDTAVYYCNRVGTYHSYDYWGQGTQVTVSS”, the “polyreactivity (PSR sort gate)” value is listed as “high polyreactivity”. For the sequence “QVQLVESGGGLVQAGGSLRLSCAASGSIFKYYAMGWYIQAPGKERELVAAITYSGGSTYYADSVKGRFTISRDNAKNTVYLQMNSLKPEDTAVYYCNKVYKSYYWGGYEWGQATQVTVSS”, the “polyreactivity (PSR sort gate)” value is recorded as “high polyreactivity”.

Take “QVQLVESGGGLVQAGGSLRLSCAASGSIFKYYAMGWYRQAPGKERELVAAISSNGGRTYYADSVKGRFTISRDNAKNTVYLQMNSLKPEDTAVYYCNVVVKGAWDYYPYDYWGQGTQVTVSS”: the “polyreactivity (PSR sort gate)” value is “high polyreactivity”. The result for “QVQLVESGGGLVQAGGSLRLSCAASGSIFKYYAMGWYRQAPGKERELVAAISSSGNTYYADSVKGRFTISRDNAKNTVYLQMNSLKPEDTAVYYCNAYRPGEMDYWGQGTQVTVSS” reads “high polyreactivity”; that for “QVQLVESGGGLVQAGGSLRLSCAASGSIFKYYAMGWYRQARGKERELVAVITSGGSTYYADSVKGLFTISRDNAKNTVYLQMNSLKPEDTAVYYCAAGVRAYNWGEYDYWGQGTQVTVSS”, “low polyreactivity”.

Take “QVQLVESGGGLVQAGGSLRLSCAASGSIFLANAMGWYRQAPGKERELVAGISSSVTTNYADSVKGRFTISRDNAKNTVYLQMNSLKPEDTAVYYCNTVLRVQFYWGQGTQVSVSS”: the “polyreactivity (PSR sort gate)” value is given as “low polyreactivity”.

On to “QVQLVESGGGLVQAGGSLRLSCAASGSIFLAYAMGWYRQAPGKEMELVATISVSGTTTYYADSVKGRFTISRDNAKNTVYLQMNSLKPEDTAVYYCAADQQDGLWDYQDWYDYWGQGTQVTVSS”, for which the “polyreactivity (PSR sort gate)” value is given as “low polyreactivity”. The result for “QVQLVESGGGLVQAGGSLRLSCAASGSIFLDNAMGWYRQAPGKEREFVATISWRTGRTYYADSVKGRFTISRDNAKNTVYLHMNSLKPEDTAVYYCAVDTVRNHRMDYWGQGTQVTVSS” reads “low polyreactivity”; that for “QVQLVESGGGLVQAGGSLRLSCAASGSIFLDNAMGWYRQAPGKERELVAAISWSAGSTYYADSVKGRFTISRDNAKNTVYLQMNSLKPEDTAVYYCAAESYPGWYWDDYWGQGTQVTVSS”, “high polyreactivity”; that for “QVQLVESGGGLVQAGGSLRLSCAASGSIFLFNAMGWNRQAPGKERELVAANTSSGTRTYYADSVKGRFTISRDNAKNTVYLQMNSMKPEDTAVYYCNAVGPVDSYHRYYYWGQGTQVTVSS”, “low polyreactivity”. For “QVQLVESGGGLVQAGGSLRLSCAASGSIFLFNAMGWYRQAPGKERELVAAINRDDSTYYADSVKGRFTISRDNAKNTVYLQMNSLKPEDTAVYYCAAPVLHASYGYGYWGQGTQGTVSS” the value was “low polyreactivity”. For the sequence “QVQLVESGGGLVQAGGSLRLSCAASGSIFLGNAMGWSRQAPGKERELVAAISSITGRTYYADSVKGRFTISRDNAKNTVYLQMNSLKPEDTAVYYCNKVKRSFIVNTDDYWGQGTQVTVSS”, the “polyreactivity (PSR sort gate)” value is “high polyreactivity”. In the case of “QVQLVESGGGLVQAGGSLRLSCAASGSIFLGNAMGWYRQAPGKERELVAAITSRGGRTYYADSVKGRFTISRDNAKNTVYLLMNSLKPEDTAVYYFAVLGFGALDFDSWGQGTEVTVSS”, the “polyreactivity (PSR sort gate)” value is reported as “high polyreactivity”.

Consider “QVQLVESGGGLVQAGGSLRLSCAASGSIFLGNAMGWYSPAPGKERELVAAISYSGGSTYYADSVKGRFTISRDNAKNTVYLQMNSLKPEDTDVYYCAADRSSQFDLDYWGQGTRVTVSS”, for which the “polyreactivity (PSR sort gate)” value is on record as “low polyreactivity”. The result for “QVQLVESGGGLVQAGGSLRLSCAASGSIFLGSVMVWYRQAPGKERELVATITGNGDGTYYADSVKGRFTISRDKAKNTVYLQMNSLKPADTAVYYCAADRSGPGYDYWGQGTQVTVSS” reads “low polyreactivity”; that for “QVQLVESGGGLVQAGGSLRLSCAASGSIFLKYTMGWYRQAPGKERELVAAITSGGTTNYADSVKGRFTISRDNAKNTVYLQMNSLKPEDTAVYYCARDSYQLGLIRDPLEYDYWGQGTQVTVSS”, “low polyreactivity”; that for “QVQLVESGGGLVQAGGSLRLSCAASGSIFLKYVMGWYRQATGKEMELVAAISSAGGTYYADSVKGRFTISRDNEKYTVYLQMICLKPEDTAVYYCGRRPYRGSYAYDYWGQGSQVTVSS”, “low polyreactivity”.

“QVQLVESGGGLVQAGGSLRLSCAASGSIFLLNAMGWYRQAPGKERELVAVISSGTGSTYYADSVKGRFTISRDTAKNTVYLQMNSLKPEDTAVYYCAAERDAVLFFVGPYYITLDYDYWGQGTQVTVSS”: the “polyreactivity (PSR sort gate)” value is “low polyreactivity”.

“QVQLVESGGGLVQAGGSLRLSCAASGSIFLNNAMGWYSQAPGKERELVAAITRNVGSTYYADSVKGRFTISRDNAKNTVYLQMNSMKPEATAVYYCAADRRRRYDYWGQGTQVTVSS”: the “polyreactivity (PSR sort gate)” value is reported as “low polyreactivity”. With “QVQLVESGGGLVQAGGSLRLSCAASGSIFLPYAMGWYRQAPGKERELVATIRGRGGSTYYADSVKGRFTISRDNAKITVYLLMNSPKPEDTAVYYCAAKNGDRYARGYWGQGTQVTVSS”, the “polyreactivity (PSR sort gate)” value is reported as “high polyreactivity”.

With “QVQLVESGGGLVQAGGSLRLSCAASGSIFLQYAMGWYRQAPGKERELVAAISWSGGSTYYADSVKGRFTISRDNAKNTVYVQMNSLKPEDTAVYYCAAPITPYRHYRMDYWGQGTQVTVSS”, the “polyreactivity (PSR sort gate)” value was “low polyreactivity”. With “QVQLVESGGGLVQAGGSLRLSCAASGSIFLQYTMGWYRQAPGKERELVAAITESDGSTYYADSVKGRFTISRDNAKNTVYLQMNSLKPEDTAVYYCAADVVYFKYWDKYDYWGQGTQVTVSS”, the “polyreactivity (PSR sort gate)” value is reported as “low polyreactivity”.

For “QVQLVESGGGLVQAGGSLRLSCAASGSIFLRNAMGWYRQAPGKERELVAAITNSSGSTYYADSVKGRFTISRDNAKNTVYLQMNSLKPEDTAVYYCAATSRSSRRYYYWGQGTQVTVSS”, the “polyreactivity (PSR sort gate)” value is “high polyreactivity”. On to “QVQLVESGGGLVQAGGSLRLSCAASGSIFLRYAMGWYRQAPGKERELVAAITTGGGSTYYADSVKGRFTISRDNAKNTDYLQMNSLKPVDTAVYYCAKRAQYHWRGRDDYSYYYWGQGTQVTVSS”, for which the “polyreactivity (PSR sort gate)” value is on record as “low polyreactivity”. Consider “QVQLVESGGGLVQAGGSLRLSCAASGSIFLSNAMGWYRQAPGKEREMVAIRKSTGSTYYADSVKGRFTISRDNAKNTVYLQMYSLKPEDTAVYYCNAGGWNAYRYRAYDYGGQGTQVTVSS”, for which the “polyreactivity (PSR sort gate)” value is “high polyreactivity”. The result for “QVQLVESGGGLVQAGGSLRLSCAASGSIFLVNAKGCYRQAPGKARELVAAITYGGDSTYYADSVKGRFTISRDNAKNTVYLQMNSLKPEDTAVYYCAADAWVGWHDEYDYWGQGTQVTVSS” reads “low polyreactivity”; that for “QVQLVESGGGLVQAGGSLRLSCAASGSIFLVNAMGWSRQAPGKERELVASITWRGGRTYYAASVKGRFTISRDNAKNTVYLQMNSLKPEDTAVYYCAARNYRTGERLRYDYWGQGTQVTVSS”, “low polyreactivity”. On to “QVQLVESGGGLVQAGGSLRLSCAASGSIFLVNAMGWYRQAPGKERELVAAIRGSGGSTYYADSVKGRFTISRDNAKNTVYLQMNSLKPEDTAVYYCAADIWRLAYDYWGQGTQVTVSS”, for which the “polyreactivity (PSR sort gate)” value is given as “low polyreactivity”. The result for “QVQLVESGGGLVQAGGSLRLSCAASGSIFLWNAMGGYRQAPGKERDLVAAISSSGGSTYYADSVKGRFTISRDNAKNTVYLQMNSLKPEDTAVYYCAAVSRSYYNSYNYWGQGTQVTVSS” reads “high polyreactivity”; that for “QVQLVESGGGLVQAGGSLRLSCAASGSIFLWNAMGWYRQAPGKERELVAAISSSGGSTYYADSVKGRFTISRDNAKNTVYLQMNSLKPEDTAVYYCAAVSRSYYNSYNYWGQGTQVTVSS”, “high polyreactivity”.

For “QVQLVESGGGLVQAGGSLRLSCAASGSIFLWYAMGWYRQAPGKERELVAAIDWSGGSTYYADSVKGRFTISRDNAKNTVYLQMNSLKPEDTAGYDCAAEWGNWYWWDYGYDYYYWGQGTQVTVSS”, the “polyreactivity (PSR sort gate)” value is listed as “high polyreactivity”.
